Test results as given in publication PMC6195791, “C9orf72, a protein associated with amyotrophic lateral sclerosis (ALS) is a guanine nucleotide exchange factor” (PeerJ, 2018).

Legend:
Assay in all cases: SEC; 3x molar excess of Rab mixed with C9orf72, overnight on ice with 20 mM EDTA; gel filtration in 20 mM Tris pH 8.0, 300 mM NaCl, 2 mM DTT, 20 mM EDTA (Superdex75 in the methods, Superdex 200 10/30 in the legend); 21 uM C9orf72 and 48 uM Rab per run; fractions checked by SDS-PAGE and western blot
Rab5A = molecular target: T1, Rab5A (UniProt P20339 1-215); details: both partners purified
T1 construct: Rab5A, amplified from its cDNA clone and put into pGEX-6p-1 (BamHI/XhoI); about 25 kDa after tag cleavage; source: E. coli BL21CodonPlus(DE3)RIPL, purified (GST Sepharose 4B, PreScission cleavage, second GST Sepharose pass); not shown: GST, N-terminal, cleaved
T1 sequence (looked up): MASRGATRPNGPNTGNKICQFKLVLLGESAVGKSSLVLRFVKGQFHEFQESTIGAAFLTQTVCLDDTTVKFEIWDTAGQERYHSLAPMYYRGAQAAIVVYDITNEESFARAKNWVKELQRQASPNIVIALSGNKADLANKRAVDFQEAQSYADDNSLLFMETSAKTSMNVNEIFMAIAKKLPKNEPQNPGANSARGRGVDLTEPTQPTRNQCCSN

[1] = molecular target: the molecule itself
Rab11A = molecular target: T2, Rab11A (UniProt P62491 1-216); details: both partners purified
T2 construct: Rab11A, amplified from its cDNA clone and put into pGEX-6p-1 (BamHI/XhoI); about 25 kDa after tag cleavage; source: E. coli BL21CodonPlus(DE3)RIPL, purified (GST Sepharose 4B, PreScission cleavage, second GST Sepharose pass); not shown: GST, N-terminal, cleaved
T2 sequence (looked up): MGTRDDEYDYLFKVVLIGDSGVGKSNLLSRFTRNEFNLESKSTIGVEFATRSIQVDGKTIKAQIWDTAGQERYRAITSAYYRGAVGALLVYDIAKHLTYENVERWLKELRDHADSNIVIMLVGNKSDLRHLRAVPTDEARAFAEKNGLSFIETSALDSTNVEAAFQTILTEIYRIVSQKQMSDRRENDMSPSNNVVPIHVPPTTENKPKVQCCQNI

B1: C9orf72 (N-terminal His6, pOPINF-C9orf72) (natural protein, human, UniProt Q96LT7 1-481, looked up)
chain: MSTLCPPPSPAVAKTEIALSGKSPLLAATFAYWDNILGPRVRHIWAPKTEQVLLSDGEITFLANHTLNGEILRNAESGAIDVKFFVLSEKGVIIVSLIFDGNWNGDRSTYGLSIILPQTELSFYLPLHRVCVDRLTHIIRKGRIWMHKERQENVQKIILEGTERMEDQGQSIIPMLTGEVIPVMELLSSMKSHSVPEEIDIADTVLNDDDIGDSCHEGFLLNAISSHLQTCGCSVVVGSSAEKVNKIVRTLCLFLTPAERKCSRLCEAESSFKYESGLFVQGLLKDSTGSFVLPFRQVMYAPYPTTHIDVDVNTVKQMPPCHEHIYNQRRYMRSELTAFWRATSEEDMAQDTIIYTDESFTPDLNIFQDVLHRDTLVKAFLDQVFQLKPGLSLRSTFLAQFLLVLHRKALTLIKYIEDDTQKGKKPFKSLRNLKIDLDLTAEGDLNIIMALAEKIKPGLHSFIFGRPFYTSVQERDVLMTF
notes: the homology model counts residues up to 481; No tag cleavage is described; also called His6-C9orf72; recombinant C9orf72; source: Sf9, baculovirus, purified (HisTrap HP, Superdex200 size-exclusion chromatography); not shown: His6, N-terminal, kept
stoichiometry N (Rab5A): 1
binding result [1]: binds
stoichiometry N (Rab11A): 1
